{"source": "paper PMC2773841", "origin": "cited, not measured here", "biological_target": "DnaK (Escherichia coli) (UniProt P0A6Y8)", "sequence (P0A6Y8 2-638)": "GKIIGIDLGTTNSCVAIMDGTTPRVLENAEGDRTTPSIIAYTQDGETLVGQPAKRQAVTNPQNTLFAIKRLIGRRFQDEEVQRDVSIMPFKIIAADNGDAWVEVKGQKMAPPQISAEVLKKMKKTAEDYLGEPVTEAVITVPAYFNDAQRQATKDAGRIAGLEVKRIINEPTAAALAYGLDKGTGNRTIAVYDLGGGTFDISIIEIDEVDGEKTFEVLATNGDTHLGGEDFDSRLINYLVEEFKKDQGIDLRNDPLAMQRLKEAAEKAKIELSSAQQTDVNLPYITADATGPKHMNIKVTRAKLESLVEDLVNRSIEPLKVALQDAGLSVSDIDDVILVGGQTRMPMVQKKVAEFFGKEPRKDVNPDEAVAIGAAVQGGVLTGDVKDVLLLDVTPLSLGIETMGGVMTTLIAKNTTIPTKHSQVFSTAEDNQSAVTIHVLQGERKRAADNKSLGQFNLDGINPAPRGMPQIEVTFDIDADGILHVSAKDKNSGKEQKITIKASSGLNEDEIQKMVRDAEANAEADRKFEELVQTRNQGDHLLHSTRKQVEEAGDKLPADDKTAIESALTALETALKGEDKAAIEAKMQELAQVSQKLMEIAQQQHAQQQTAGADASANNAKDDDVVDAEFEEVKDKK", "data": [{"substance": "GrpE (from UniProt P09372)", "values": [{"measurement": "Kd", "value": 1, "unit": "nM"}]}]}
